Key:
[1] = target: SARS-CoV-2 spike glycoprotein S1 subunit (SARS-CoV-2, UniProt P0DTC2 14-685); assay: BLI
[2] = target: SARS-CoV-2 spike glycoprotein receptor-binding domain (SARS-CoV-2, UniProt P0DTC2 319-541); assay: BLI

B1: angiotensin-converting enzyme 2 (ACE2) protein, purified (receptor)
chain: QSTIEEQAKTFLDKFNHEAEDLFYQSSLASWNYNTNITEENVQNMNNAGEKWSAFLKEQSTLAQMYPLQEIQNLTVKLQLQALQQNGSSVLSEDKSKRLNTILNTMSTIYSTGKVCNPNNPQECLLLDPGLNEIMEKSLDYNERLWAWEGWRSEVGKQLRPLYEEYVVLKNEMARANHYKDYGDYWRGNYEVNGVDGYDYNRDQLIEDVERTFEEIKPLYEHLHAYVRAKLMNAYPSYISPTGCLPAHLLGDMWGRFWTNLYSLTVPFGQKPNIDVTDAMVNQAWNAQRIFKEAEKFFVSVGLPNMTQGFWENSMLTDPGNVQKVVCHPTAWDLGKGDFRIIMCTKVTMDDFLTAHHEMGHIQYDMAYAAQPFLLRNGANEGFHEAVGEIMSLSAATPKHLKSIGLLSPDFQEDNETEINFLLKQALTIVGTLPFTYMLEKWRWMVFKGEIPKDQWMKKWWEMKREIVGVVEPVPHDETYCDPASLFHVSNDYSFIRYYTRTLYQFQFQEALCQAAKHEGPLHKCDISNSTEAGQKLLNMLKLGKSEPWTLALENVVGAKNMNVRPLLNYFEPLFTWLKDQNKNSFVGWSTDWSPYADQSIKVRISLKSALGDKAYEWNDNEMYLFRSSVAYAMRTYFLEIKHQTILFGEEDVRVADLKPRISFNFYVTAPKNVSDIIPRTEVEEAIRISRSRINDAFRLNDNSLEFLGIQTTLAPPYQSPVT
With B1 the Kd [1] was 146 nM and the Kd [2] was 149 nM.

Reference: article PMC7486399 (2020)
